The source of these data is patent US20210130436A1.

Test [1] concerns the target CD28 (human) (UniProt P10747). In words: cell-based or functional assay.
Test [2] addresses PD-L1 (human) (UniProt Q9NZQ7). In words: cell-based or functional assay.

Sequence of PD-L1 (human) (Q9NZQ7 19-290): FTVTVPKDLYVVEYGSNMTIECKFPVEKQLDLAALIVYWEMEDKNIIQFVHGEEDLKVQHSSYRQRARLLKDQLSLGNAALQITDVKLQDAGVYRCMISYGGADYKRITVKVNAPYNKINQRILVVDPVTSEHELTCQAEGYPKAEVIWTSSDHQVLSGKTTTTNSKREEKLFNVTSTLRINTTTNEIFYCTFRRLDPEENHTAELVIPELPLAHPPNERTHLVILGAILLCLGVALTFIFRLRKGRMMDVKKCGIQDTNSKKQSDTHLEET
Sequence of WT CD80 IgV-Fc (inert) (Fc fusion) (chain): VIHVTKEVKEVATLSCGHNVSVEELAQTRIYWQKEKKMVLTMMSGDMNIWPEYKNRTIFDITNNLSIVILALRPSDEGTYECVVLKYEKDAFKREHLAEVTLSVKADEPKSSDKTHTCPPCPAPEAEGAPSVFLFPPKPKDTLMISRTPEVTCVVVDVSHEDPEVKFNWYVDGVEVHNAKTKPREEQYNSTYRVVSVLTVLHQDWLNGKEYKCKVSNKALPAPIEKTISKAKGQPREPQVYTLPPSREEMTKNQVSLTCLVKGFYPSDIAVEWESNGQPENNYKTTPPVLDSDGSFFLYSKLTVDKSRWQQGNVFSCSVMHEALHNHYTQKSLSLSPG

In test [1], WT CD80 IgV-Fc (effector) (Fc fusion) registered an IL-2 release, primary T cells; K562/OKT3 (No PD-L1); 1 nM of 7170; an IL-2 release, primary T cells; K562/OKT3 (No PD-L1); 10 nM of 7120; an IL-2 release, primary T cells; K562/OKT3 (No PD-L1); 100 nM of 6200; an RLU, Jurkat/IL2 reporter; K562/OKT3 aAPC, FcR Dependent Cross-Linking (No PD-L1); 0.6 nM of 1410 RLU. Moreover, in test [1], the RLU, Jurkat/IL2 reporter; K562/OKT3 aAPC, FcR Dependent Cross-Linking (No PD-L1); 1.9 nM stood at 1350 RLU; the RLU, Jurkat/IL2 reporter; K562/OKT3 aAPC, FcR Dependent Cross-Linking (No PD-L1); 5.6 nM stood at 1310 RLU; the RLU, Jurkat/IL2 reporter; K562/OKT3 aAPC, FcR Dependent Cross-Linking (No PD-L1); 16.7 nM amounted to 1210 RLU; the RLU, Jurkat/IL2 reporter; K562/OKT3 aAPC, FcR Dependent Cross-Linking (No PD-L1); 50 nM worked out at 1250 RLU. In test [2], the RLU, Jurkat/IL2 reporter; K562/OKT3/PD-L1 aAPC, Combination of FcR and/or PD-L1 Dependent Cross-Linking; 0.6 nM was determined as 662 RLU; the RLU, Jurkat/IL2 reporter; K562/OKT3/PD-L1 aAPC, Combination of FcR and/or PD-L1 Dependent Cross-Linking; 1.9 nM was 674 RLU; the RLU, Jurkat/IL2 reporter; K562/OKT3/PD-L1 aAPC, Combination of FcR and/or PD-L1 Dependent Cross-Linking; 5.6 nM is 697 RLU; the RLU, Jurkat/IL2 reporter; K562/OKT3/PD-L1 aAPC, Combination of FcR and/or PD-L1 Dependent Cross-Linking; 16.7 nM worked out at 673 RLU. The RLU, Jurkat/IL2 reporter; K562/OKT3/PD-L1 aAPC, Combination of FcR and/or PD-L1 Dependent Cross-Linking; 50 nM in test [2] turned out to be 663 RLU.

WT CD80 IgV-Fc (inert) (Fc fusion): in test [1], the IL-2-luciferase RLU, Jurkat + CHO/OKT3/PD-L1 aAPC, 0.6 nM was determined as 458 RLU; the IL-2-luciferase RLU, Jurkat + CHO/OKT3/PD-L1 aAPC, 1.9 nM is 486 RLU; the IL-2-luciferase RLU, Jurkat + CHO/OKT3/PD-L1 aAPC, 5.6 nM turned out to be 511 RLU; the IL-2-luciferase RLU, Jurkat + CHO/OKT3/PD-L1 aAPC, 50 nM is 483 RLU. For the same substance, in test [1], the IL-2-luciferase RLU, Jurkat + CHO/OKT3 aAPC (no PD-L1), 5.6 nM is 450 RLU; the IL-2-luciferase RLU, Jurkat + CHO/OKT3 aAPC (no PD-L1), 16.7 nM was found to be 444 RLU; the IL-2-luciferase RLU, Jurkat + CHO/OKT3 aAPC (no PD-L1), 50 nM turned out to be 479 RLU; the IL-2-luciferase RLU, Jurkat + K562/OKT3/PD-L1 aAPC, 50 nM was found to be 566 RLU. This substance gave an IL-2 release, primary T cells; K562/OKT3/PD-L1; 100 nM in test [2] of 52.

In test [1], “variant CD80 IgV-Fc (effector) A26E/E35D/M47L/L85Q (Fc fusion)” came in with an IL-2 release, primary T cells; K562/OKT3 (No PD-L1); 1 nM of 6850; an IL-2 release, primary T cells; K562/OKT3 (No PD-L1); 10 nM of 8320; an RLU, Jurkat/IL2 reporter; K562/OKT3 aAPC, FcR Dependent Cross-Linking (No PD-L1); 0.6 nM of 1350 RLU; an RLU, Jurkat/IL2 reporter; K562/OKT3 aAPC, FcR Dependent Cross-Linking (No PD-L1); 1.9 nM of 1380 RLU. Moreover, in test [1], the RLU, Jurkat/IL2 reporter; K562/OKT3 aAPC, FcR Dependent Cross-Linking (No PD-L1); 5.6 nM stood at 1420 RLU; the RLU, Jurkat/IL2 reporter; K562/OKT3 aAPC, FcR Dependent Cross-Linking (No PD-L1); 16.7 nM worked out at 1370 RLU; the RLU, Jurkat/IL2 reporter; K562/OKT3 aAPC, FcR Dependent Cross-Linking (No PD-L1); 50 nM was determined as 1330 RLU. Besides, in test [2], the RLU, Jurkat/IL2 reporter; K562/OKT3/PD-L1 aAPC, Combination of FcR and/or PD-L1 Dependent Cross-Linking; 0.6 nM was 1230 RLU; the RLU, Jurkat/IL2 reporter; K562/OKT3/PD-L1 aAPC, Combination of FcR and/or PD-L1 Dependent Cross-Linking; 1.9 nM is 1590 RLU; the RLU, Jurkat/IL2 reporter; K562/OKT3/PD-L1 aAPC, Combination of FcR and/or PD-L1 Dependent Cross-Linking; 5.6 nM was determined as 2000 RLU; the RLU, Jurkat/IL2 reporter; K562/OKT3/PD-L1 aAPC, Combination of FcR and/or PD-L1 Dependent Cross-Linking; 16.7 nM turned out to be 2500 RLU. Besides, the RLU, Jurkat/IL2 reporter; K562/OKT3/PD-L1 aAPC, Combination of FcR and/or PD-L1 Dependent Cross-Linking; 50 nM in test [2] came to 2640 RLU.

In test [1], “variant CD80 IgV-Fc (effector) A71D/L72V/E95K (Fc fusion)” registered an IL-2 release, primary T cells; K562/OKT3 (No PD-L1); 10 nM of 15100; an IL-2 release, primary T cells; K562/OKT3 (No PD-L1); 100 nM of 21300; an RLU, Jurkat/IL2 reporter; K562/OKT3 aAPC, FcR Dependent Cross-Linking (No PD-L1); 0.6 nM of 1820 RLU; an RLU, Jurkat/IL2 reporter; K562/OKT3 aAPC, FcR Dependent Cross-Linking (No PD-L1); 1.9 nM of 2590 RLU. For the same substance, in test [1], the RLU, Jurkat/IL2 reporter; K562/OKT3 aAPC, FcR Dependent Cross-Linking (No PD-L1); 5.6 nM was determined as 4130 RLU; the RLU, Jurkat/IL2 reporter; K562/OKT3 aAPC, FcR Dependent Cross-Linking (No PD-L1); 16.7 nM worked out at 5550 RLU; the RLU, Jurkat/IL2 reporter; K562/OKT3 aAPC, FcR Dependent Cross-Linking (No PD-L1); 50 nM was 7110 RLU. In test [2], the RLU, Jurkat/IL2 reporter; K562/OKT3/PD-L1 aAPC, Combination of FcR and/or PD-L1 Dependent Cross-Linking; 1.9 nM turned out to be 1540 RLU; the RLU, Jurkat/IL2 reporter; K562/OKT3/PD-L1 aAPC, Combination of FcR and/or PD-L1 Dependent Cross-Linking; 5.6 nM was found to be 2520 RLU; the RLU, Jurkat/IL2 reporter; K562/OKT3/PD-L1 aAPC, Combination of FcR and/or PD-L1 Dependent Cross-Linking; 16.7 nM was found to be 3640 RLU; the RLU, Jurkat/IL2 reporter; K562/OKT3/PD-L1 aAPC, Combination of FcR and/or PD-L1 Dependent Cross-Linking; 50 nM came out at 4030 RLU.

In test [1], “variant CD80 IgV-Fc (effector) E23G/A26S/E35D/T62N/A71D/L72V/L85M (Fc fusion)” gave an IL-2 release, primary T cells; K562/OKT3 (No PD-L1); 1 nM of 15400; an IL-2 release, primary T cells; K562/OKT3 (No PD-L1); 10 nM of 23500; an IL-2 release, primary T cells; K562/OKT3 (No PD-L1); 100 nM of 27000; an RLU, Jurkat/IL2 reporter; K562/OKT3 aAPC, FcR Dependent Cross-Linking (No PD-L1); 0.6 nM of 2020 RLU. In test [1], this substance showed an RLU, Jurkat/IL2 reporter; K562/OKT3 aAPC, FcR Dependent Cross-Linking (No PD-L1); 1.9 nM of 3300 RLU; an RLU, Jurkat/IL2 reporter; K562/OKT3 aAPC, FcR Dependent Cross-Linking (No PD-L1); 5.6 nM of 5050 RLU; an RLU, Jurkat/IL2 reporter; K562/OKT3 aAPC, FcR Dependent Cross-Linking (No PD-L1); 16.7 nM of 7010 RLU; an RLU, Jurkat/IL2 reporter; K562/OKT3 aAPC, FcR Dependent Cross-Linking (No PD-L1); 50 nM of 7860 RLU. Also, in test [2], the RLU, Jurkat/IL2 reporter; K562/OKT3/PD-L1 aAPC, Combination of FcR and/or PD-L1 Dependent Cross-Linking; 0.6 nM worked out at 1150 RLU; the RLU, Jurkat/IL2 reporter; K562/OKT3/PD-L1 aAPC, Combination of FcR and/or PD-L1 Dependent Cross-Linking; 1.9 nM stood at 1950 RLU; the RLU, Jurkat/IL2 reporter; K562/OKT3/PD-L1 aAPC, Combination of FcR and/or PD-L1 Dependent Cross-Linking; 5.6 nM stood at 3220 RLU; the RLU, Jurkat/IL2 reporter; K562/OKT3/PD-L1 aAPC, Combination of FcR and/or PD-L1 Dependent Cross-Linking; 16.7 nM is 4040 RLU. For the same substance, in test [2], the RLU, Jurkat/IL2 reporter; K562/OKT3/PD-L1 aAPC, Combination of FcR and/or PD-L1 Dependent Cross-Linking; 50 nM amounted to 4140 RLU.

In test [1], “variant CD80 IgV-Fc (effector) E35D (Fc fusion)” yielded an IL-2 release, primary T cells; K562/OKT3 (No PD-L1); 1 nM of 7600; an IL-2 release, primary T cells; K562/OKT3 (No PD-L1); 10 nM of 7990; an IL-2 release, primary T cells; K562/OKT3 (No PD-L1); 100 nM of 8380; an RLU, Jurkat/IL2 reporter; K562/OKT3 aAPC, FcR Dependent Cross-Linking (No PD-L1); 0.6 nM of 1400 RLU. Besides, in test [1], the RLU, Jurkat/IL2 reporter; K562/OKT3 aAPC, FcR Dependent Cross-Linking (No PD-L1); 1.9 nM stood at 1330 RLU; the RLU, Jurkat/IL2 reporter; K562/OKT3 aAPC, FcR Dependent Cross-Linking (No PD-L1); 5.6 nM worked out at 1300 RLU; the RLU, Jurkat/IL2 reporter; K562/OKT3 aAPC, FcR Dependent Cross-Linking (No PD-L1); 16.7 nM is 1320 RLU; the RLU, Jurkat/IL2 reporter; K562/OKT3 aAPC, FcR Dependent Cross-Linking (No PD-L1); 50 nM was found to be 1200 RLU. In addition, in test [2], the RLU, Jurkat/IL2 reporter; K562/OKT3/PD-L1 aAPC, Combination of FcR and/or PD-L1 Dependent Cross-Linking; 0.6 nM was 920 RLU; the RLU, Jurkat/IL2 reporter; K562/OKT3/PD-L1 aAPC, Combination of FcR and/or PD-L1 Dependent Cross-Linking; 1.9 nM amounted to 1110 RLU; the RLU, Jurkat/IL2 reporter; K562/OKT3/PD-L1 aAPC, Combination of FcR and/or PD-L1 Dependent Cross-Linking; 5.6 nM is 1400 RLU; the RLU, Jurkat/IL2 reporter; K562/OKT3/PD-L1 aAPC, Combination of FcR and/or PD-L1 Dependent Cross-Linking; 16.7 nM was found to be 1760 RLU. Also, in test [2], the RLU, Jurkat/IL2 reporter; K562/OKT3/PD-L1 aAPC, Combination of FcR and/or PD-L1 Dependent Cross-Linking; 50 nM came to 2270 RLU.

In test [1], “variant CD80 IgV-Fc (effector) E35D/D46V/L85Q (Fc fusion)” registered an IL-2 release, primary T cells; K562/OKT3 (No PD-L1); 1 nM of 14300; an IL-2 release, primary T cells; K562/OKT3 (No PD-L1); 10 nM of 21500; an IL-2 release, primary T cells; K562/OKT3 (No PD-L1); 100 nM of 25400; an RLU, Jurkat/IL2 reporter; K562/OKT3 aAPC, FcR Dependent Cross-Linking (No PD-L1); 0.6 nM of 1880 RLU. In test [1], this substance registered an RLU, Jurkat/IL2 reporter; K562/OKT3 aAPC, FcR Dependent Cross-Linking (No PD-L1); 1.9 nM of 2720 RLU; an RLU, Jurkat/IL2 reporter; K562/OKT3 aAPC, FcR Dependent Cross-Linking (No PD-L1); 5.6 nM of 4400 RLU; an RLU, Jurkat/IL2 reporter; K562/OKT3 aAPC, FcR Dependent Cross-Linking (No PD-L1); 16.7 nM of 6020 RLU; an RLU, Jurkat/IL2 reporter; K562/OKT3 aAPC, FcR Dependent Cross-Linking (No PD-L1); 50 nM of 7020 RLU. In test [2], the RLU, Jurkat/IL2 reporter; K562/OKT3/PD-L1 aAPC, Combination of FcR and/or PD-L1 Dependent Cross-Linking; 0.6 nM worked out at 1420 RLU; the RLU, Jurkat/IL2 reporter; K562/OKT3/PD-L1 aAPC, Combination of FcR and/or PD-L1 Dependent Cross-Linking; 1.9 nM came out at 2430 RLU; the RLU, Jurkat/IL2 reporter; K562/OKT3/PD-L1 aAPC, Combination of FcR and/or PD-L1 Dependent Cross-Linking; 5.6 nM came out at 3310 RLU; the RLU, Jurkat/IL2 reporter; K562/OKT3/PD-L1 aAPC, Combination of FcR and/or PD-L1 Dependent Cross-Linking; 16.7 nM was found to be 3640 RLU. The RLU, Jurkat/IL2 reporter; K562/OKT3/PD-L1 aAPC, Combination of FcR and/or PD-L1 Dependent Cross-Linking; 50 nM in test [2] was 4130 RLU.
